In this experiment the target is T1, F2R like trypsin receptor 1 (PAR2) (UniProt P55085 37-397).
T1 sequence (looked up): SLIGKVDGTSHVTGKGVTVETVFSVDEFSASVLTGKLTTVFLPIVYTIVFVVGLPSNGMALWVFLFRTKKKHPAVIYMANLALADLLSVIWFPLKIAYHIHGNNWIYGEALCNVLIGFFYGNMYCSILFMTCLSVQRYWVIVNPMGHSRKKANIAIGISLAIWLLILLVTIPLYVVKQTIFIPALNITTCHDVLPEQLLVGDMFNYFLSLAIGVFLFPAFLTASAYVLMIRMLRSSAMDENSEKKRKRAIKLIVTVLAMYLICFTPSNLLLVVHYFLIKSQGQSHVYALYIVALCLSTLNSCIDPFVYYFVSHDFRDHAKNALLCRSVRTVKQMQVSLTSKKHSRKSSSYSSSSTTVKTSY
In words: cell-based or functional assay.

Where no end group is shown, it is not given here.

B1: SLIGRL-NH2 (peptide)
peptide: SLIGRL-NH2
With B1, the “EC50 SLIGRL-NH2 calcium assay” value stood at 4.06 µM and the “EC50 SLIGRL-NH2 ß-Arrestin assay” value was 12.7 µM.

B2: SLIGKV (peptide)
peptide: SLIGKV
Turning to B2, the “EC50 SLIGKV calcium assay” value came to 1.67 µM and the “EC50 SLIGKV ß-Arrestin assay” value stood at 4.83 µM.

Source of the values: patent US20190359686A1 (INNOVATIVE TECHNOLOGIES IN BIOLOGICAL SYSTEMS SL, published 2019).
